Some results are limits rather than exact numbers.

Results on three molecules are retold here after patent US20210169880A1.

One experiment concerns the target human ROR1 (human) (UniProt Q01973). In words: cell-based or functional assay.
The next experiment concerns the target human SLAMF7 (human) (UniProt Q9NQ25). In words: cell-based or functional assay.

B1: ROR1 CAR with 4-1BB costimulatory domain (protein)
chain: QVQLVESGGALVQPGGSLTLSCKASGFDFSAYYMSWVRQAPGKGLEWIATIYPSSGKTYYAASVQGRFTISADNAKNTVYLQMNSLTAADTATYFCARDSYADDGALFNIWGQGTLVTVSSGGGGSGGGGSGGGGSQLVLTQSPSVSAALGSSAKITCTLSSAHKTDTIDWYQQLAGQAPRYLMYVQSDGSYEKRSGVPDRFSGSSSGADRYLIISSVQADDEADYYCGADYIGGYVFGGGTQLTVGESKYGPPCPPCPMFWVLVVVGGVLACYSLLVTVAFIIFWVKRGRKKLLYIFKQPFMRPVQTTQEEDGCSCRFPEEEEGGCELRVKFSRSADAPAYQQGQNQLYNELNLGRREEYDVLDKRRGRDPEMGGKPRRKNPQEGLYNELQKDKMAEAYSEIGMKGERRRGKGHDGLYQGLSTATKDTYDALHMQALPPR
Regarding B1, in the experiment with human ROR1 (human), the IFN-γ in supernatant (ELISA), CD8+ CAR-T cells co-cultured with RCH-ACV, untreated came to 1310 pg/mL; the proliferation index (CFSE, 72 h), CD8+ CAR-T cells co-cultured with RCH-ACV, untreated (proliferation index) came to 2.84; the specific lysis of K562/ROR1 target cells by CD8+ CAR-T cells, no dasatinib, t=10 h came out at 94%; the specific lysis of K562/ROR1 target cells by CD8+ CAR-T cells, no dasatinib, up to t=5 h was determined as 73%. Further, the specific lysis of ROR1+ RCH-ACV target cells by CD8+ CAR-T cells, untreated, t=8 h in the experiment with human ROR1 (human) was > 90%.

B2: SLAMF7 CAR with CD28 costimulatory domain (protein)
chain: EVQLVESGGGLVQPGGSLRLSCAASGFDFSRYWMSWVRQAPGKGLEWIGEINPDSSTINYAPSLKDKFIISRDNAKNSLYLQMNSLRAEDTAVYYCARPDGNYWYFDVWGQGTLVTVSSGGGGSGGGGSGGGGSDIQMTQSPSSLSASVGDRVTITCKASQDVGIAVAWYQQKPGKVPKLLIYWASTRHTGVPDRFSGSGSGTDFTLTISSLQPEDVATYYCQQYSSYPYTFGQGTKVEIKESKYGPPCPPCPAPPVAGPSVFLFPPKPKDTLMISRTPEVTCVVVDVSQEDPEVQFNWYVDGVEVHNAKTKPREEQFQSTYRVVSVLTVLHQDWLNGKEYKCKVSNKGLPSSIEKTISKAKGQPREPQVYTLPPSQEEMTKNQVSLTCLVKGFYPSDIAVEWESNGQPENNYKTTPPVLDSDGSFFLYSRLTVDKSRWQEGNVFSCSVMHEALHNHYTQKSLSLSLGKMFWVLVVVGGVLACYSLLVTVAFIIFWVRSKRSRGGHSDYMNMTPRRPGPTRKHYQPYAPPRDFAAYRSRVKFSRSADAPAYQQGQNQLYNELNLGRREEYDVLDKRRGRDPEMGGKPRRKNPQEGLYNELQKDKMAEAYSEIGMKGERRRGKGHDGLYQGLSTATKDTYDALHMQALPPR
In the experiment with human SLAMF7 (human), B2 returned a specific lysis of K562/SLAMF7 target cells by CD8+ CAR-T cells, no dasatinib, t=6 h of 67% and a specific lysis of K562/SLAMF7 target cells by CD8+ CAR-T cells, no dasatinib, t=12 h of 85%.

B3: SLAMF7 CAR with 4-1BB costimulatory domain (protein)
chain: EVQLVESGGGLVQPGGSLRLSCAASGFDFSRYWMSWVRQAPGKGLEWIGEINPDSSTINYAPSLKDKFIISRDNAKNSLYLQMNSLRAEDTAVYYCARPDGNYWYFDVWGQGTLVTVSSGGGGSGGGGSGGGGSDIQMTQSPSSLSASVGDRVTITCKASQDVGIAVAWYQQKPGKVPKLLIYWASTRHTGVPDRFSGSGSGTDFTLTISSLQPEDVATYYCQQYSSYPYTFGQGTKVEIKESKYGPPCPPCPAPPVAGPSVFLFPPKPKDTLMISRTPEVTCVVVDVSQEDPEVQFNWYVDGVEVHNAKTKPREEQFQSTYRVVSVLTVLHQDWLNGKEYKCKVSNKGLPSSIEKTISKAKGQPREPQVYTLPPSQEEMTKNQVSLTCLVKGFYPSDIAVEWESNGQPENNYKTTPPVLDSDGSFFLYSRLTVDKSRWQEGNVFSCSVMHEALHNHYTQKSLSLSLGKMFWVLVVVGGVLACYSLLVTVAFIIFWVKRGRKKLLYIFKQPFMRPVQTTQEEDGCSCRFPEEEEGGCELRVKFSRSADAPAYQQGQNQLYNELNLGRREEYDVLDKRRGRDPEMGGKPRRKNPQEGLYNELQKDKMAEAYSEIGMKGERRRGKGHDGLYQGLSTATKDTYDALHMQALPPR
For the molecule B3, in the experiment with human SLAMF7 (human), the specific lysis of K562/SLAMF7 target cells by CD8+ CAR-T cells, no dasatinib, t=6 h amounted to 63% and the specific lysis of K562/SLAMF7 target cells by CD8+ CAR-T cells, no dasatinib, t=12 h amounted to 83%.
